For the assay, the target named is S. cerevisiae full-length Ty3 integrase (assembled on Ty3 LTR DNA as the Ty3 intasome) (S. cerevisiae). Nature of the assay: cryo-EM structure; minimal integration machinery: Ty3 intasome with TFIIIB on unlabelled 55-bp tD(GUC)K DNA, without TFIIIC; gel filtration in 40 mM Tris pH 7, 80 mM NaCl, 7 mM MgCl2, 1 mM DTT; un-crosslinked; strand-transfer complex, 4.0 Å.

The values below come from article PMC8632968.

As usually defined, the stoichiometry N is a count of units in the complex or per binding partner.

In the case of “S. cerevisiae full-length Ty3 integrase (assembled on Ty3 LTR DNA as the Ty3 intasome) (enzyme)”, the stoichiometry N was 4.
